{
  "source": "paper PMC9280406",
  "about": "“The Necrotroph Botrytis cinerea BcSpd1 Plays a Key Role in Modulating Both Fungal Pathogenic Factors and Plant Disease Development”",
  "target": "BcSpd1 (Botrytis cinerea, UniProt A0A384JL35 1-465)",
  "experiment": "EMSA; excess unlabeled probe blocked the shift; LightShift Chemiluminescent EMSA kit procedure (Thermo Scientific); buffer, salt, pH and temperature not given",
  "conditions": "protein: recombinant; tags: His (pET28a); chain copies: 2; blunt",
  "data": [
    {"binder": "BcQdo promoter fragment 3 (E-BcQdo-Pr3) (dsDNA) DNA 1: TACCGAACGCCCACAAGCCTTGAATATAGATGTACCGGTACTGCTGCCGA DNA 2: TCGGCAGCAGTACCGGTACATCTATATTCAAGGCTTGTGGGCGTTCGGTA", "values": [
      {"measurement": "binding result", "result": "binds"}
    ]}
  ]
}
